# Measured values reported in the supplement of paper PMC9112550, “Optimization of the antimicrobial peptide Bac7 by deep mutational scanning” (BMC Biology, 2022).
# System: Escherichia coli TOP10
# Test: shrunken log2 fold change of peptide-encoding DNA abundance (4.5 h post-induction vs induction); higher = less antimicrobial activity (less host growth inhibition)
# Conditions: time post-induction: 4.5 h; library: site-saturation at positions 5, 18, 19, 20
# 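Also: peptides expressed intracellularly from a pBAD plasmid library in pooled LB shake-flask culture, induced with 0.3% L-arabinose, DNA abundance read by NGS, three biological replicates, DESeq2 with apeglm shrinkage.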
row,Sequence,shrunken log2 fold change
1,RRIRRRPPRLPRPRPRPQKFPRP,-0.0996
2,RRIRRRPPRLPRPRPRPQKHPRP,0.0365
3,RRIRRRPPRLPRPRPRPQKSPRP,-0.106
4,RRIRRRPPRLPRPRPRPQKTPRP,-0.019
5,RRIRRRPPRLPRPRPRPQLMPRP,0.247
6,RRIRRRPPRLPRPRPRPQPDPRP,0.317
7,RRIRRRPPRLPRPRPRPQPTPRP,0.533
8,RRIRRRPPRLPRPRPRPQQMPRP,0.12
9,RRIRRRPPRLPRPRPRPQRKPRP,0.347
10,RRIRRRPPRLPRPRPRPQRNPRP,0.245
11,RRIRRRPPRLPRPRPRPQRYPRP,-0.15
12,RRIRRRPPRLPRPRPRPQSHPRP,-0.0536
13,RRIRRRPPRLPRPRPRPQSMPRP,0.0695
14,RRIRRRPPRLPRPRPRPQSVPRP,-0.0146
15,RRIRRRPPRLPRPRPRPQWGPRP,0.323
16,RRIRRRPPRLPRPRPRPQWQPRP,0.435
17,RRIRRRPPRLPRPRPRPQWSPRP,-0.00927
18,RRIRRRPPRLPRPRPRPQWTPRP,0.31
19,RRIRRRPPRLPRPRPRPQYAPRP,0.0794
20,RRIRRRPPRLPRPRPRPQYRPRP,-0.0575
21,RRIRRRPPRLPRPRPRPQYTPRP,-0.221
22,RRIRRRPPRLPRPRPRPRCQPRP,0.385
23,RRIRRRPPRLPRPRPRPRCRPRP,1.57
24,RRIRRRPPRLPRPRPRPRDCPRP,0.177
25,RRIRRRPPRLPRPRPRPRDIPRP,0.0666

row,Sequence,shrunken log2 fold change
1,RRIRRRPPRLPRPRPRPRDRPRP,0.713
2,RRIRRRPPRLPRPRPRPREIPRP,0.479
3,RRIRRRPPRLPRPRPRPRIFPRP,0.0808
4,RRIRRRPPRLPRPRPRPRITPRP,0.186
5,RRIRRRPPRLPRPRPRPRKPPRP,0.153
6,RRIRRRPPRLPRPRPRPRLEPRP,0.508
7,RRIRRRPPRLPRPRPRPRMCPRP,0.17
8,RRIRRRPPRLPRPRPRPRMVPRP,0.218
9,RRIRRRPPRLPRPRPRPRQDPRP,0.274
10,RRIRRRPPRLPRPRPRPRQLPRP,0.394
11,RRIRRRPPRLPRPRPRPRRKPRP,0.43
12,RRIRRRPPRLPRPRPRPRSAPRP,0.532
13,RRIRRRPPRLPRPRPRPRSKPRP,0.29
14,RRIRRRPPRLPRPRPRPRSSPRP,0.0954
15,RRIRRRPPRLPRPRPRPRTKPRP,0.0753
16,RRIRRRPPRLPRPRPRPRTWPRP,1.84
17,RRIRRRPPRLPRPRPRPRWNPRP,0.326
18,RRIRRRPPRLPRPRPRPRWTPRP,0.453
19,RRIRRRPPRLPRPRPRPSACPRP,0.195
20,RRIRRRPPRLPRPRPRPSEIPRP,0.0269
21,RRIRRRPPRLPRPRPRPSFHPRP,-0.182
22,RRIRRRPPRLPRPRPRPSFMPRP,-0.106
23,RRIRRRPPRLPRPRPRPSHRPRP,-0.00626
24,RRIRRRPPRLPRPRPRPSMDPRP,0.0821
25,RRIRRRPPRLPRPRPRPSNPPRP,-0.203

row,Sequence,shrunken log2 fold change
1,RRIRRRPPRLPRPRPRPSRAPRP,0.369
2,RRIRRRPPRLPRPRPRPSREPRP,0.962
3,RRIRRRPPRLPRPRPRPSRLPRP,0.177
4,RRIRRRPPRLPRPRPRPSRRPRP,-0.0701
5,RRIRRRPPRLPRPRPRPSSIPRP,-0.485
6,RRIRRRPPRLPRPRPRPSSSPRP,0.133
7,RRIRRRPPRLPRPRPRPSTCPRP,0.0254
8,RRIRRRPPRLPRPRPRPSTIPRP,-0.121
9,RRIRRRPPRLPRPRPRPSTPPRP,0.225
10,RRIRRRPPRLPRPRPRPSVKPRP,0.155
11,RRIRRRPPRLPRPRPRPTATPRP,1.56
12,RRIRRRPPRLPRPRPRPTCGPRP,0.506
13,RRIRRRPPRLPRPRPRPTCNPRP,0.026
14,RRIRRRPPRLPRPRPRPTDAPRP,0.198
15,RRIRRRPPRLPRPRPRPTDRPRP,0.194
16,RRIRRRPPRLPRPRPRPTEAPRP,0.0804
17,RRIRRRPPRLPRPRPRPTGNPRP,0.0381
18,RRIRRRPPRLPRPRPRPTHEPRP,0.338
19,RRIRRRPPRLPRPRPRPTHHPRP,0.8
20,RRIRRRPPRLPRPRPRPTHNPRP,0.695
21,RRIRRRPPRLPRPRPRPTINPRP,-0.134
22,RRIRRRPPRLPRPRPRPTKTPRP,0.049
23,RRIRRRPPRLPRPRPRPTLPPRP,0.482
24,RRIRRRPPRLPRPRPRPTMCPRP,0.233
25,RRIRRRPPRLPRPRPRPTMFPRP,0.0275
